Measurements taken from US20240076370A1 (Memorial Sloan Kettering, published 2024).

Biological target: T1, human G-protein coupled receptor family C group 5 member D (GPRC5D) (human, UniProt Q9NZD1 1-345)
T1 construct: Overexpressed on 3T3 cells in the FACS assays; also called human GPRC5D; 3T3-GPRC5D
Assay: FACS, scFv phage clones on 3T3 cells overexpressing GPRC5D

T1 sequence (Q9NZD1 whole entry): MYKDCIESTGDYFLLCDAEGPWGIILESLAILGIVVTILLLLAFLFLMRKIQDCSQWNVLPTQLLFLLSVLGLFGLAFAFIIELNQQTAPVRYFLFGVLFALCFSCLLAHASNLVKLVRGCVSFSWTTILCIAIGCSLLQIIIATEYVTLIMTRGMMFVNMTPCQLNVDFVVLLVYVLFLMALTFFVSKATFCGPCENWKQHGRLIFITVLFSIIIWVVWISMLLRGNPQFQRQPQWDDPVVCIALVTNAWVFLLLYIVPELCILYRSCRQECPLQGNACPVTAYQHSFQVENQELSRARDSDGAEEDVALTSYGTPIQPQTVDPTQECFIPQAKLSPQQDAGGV

Row | Binder | binding result
1 | ET150-171 scFv (scFv, also called ET150-21 scFv) scFv: QSALTQPASVSGSPGQSITISCTGTSSDVGGYNFVSWYQQHPGKAPKVMIYDVSKRPSGISNRFSGSKSGNTASLTISGLQVEDEAEYYCSSYTSTRTVIFAGGTKVTVLGSRGGGGSGGGGSGGGGSLEMAQVQLVQSGAEVKKPGASVKVSCKASGYTFTSYYMHWVRQAPGQGLEWMGIINPSGGSTRYAQKFQGRVTMTRDTSTSTVYMELSSLRSEDTAVYYCARGSSRWGGWTGDYWGQGTLVTVSS | binds
2 | ET150-164 scFv (scFv, also called ET150-14 scFv) scFv: QSALTQPPSASGSPGQSVTISCTGTSSDVGGYNYVSWYQQHPGKAPKLMIYEVSKRPSGVPDRFSGSKSGNTASLTVSGLQAEDEADYYCSSYAGSNTLVFGGGTKLTVLGSRGGGGSGGGGSGGGGSLEMAQMQLVQSGAEVKKPGASVKVSCKASGYTFTSYYMHWVRQAPGQGLEWMGIINPSGGSTSYAQKFQGRVTMTRDTSTSTVYMELSSLRSEDTAVYYCARAGMGMDTWGQGTLVTVSS | binds
3 | ET150-172 scFv (scFv, also called ET150-22 scFv) scFv: QSALTQPPSASGSPGQSVTISCTGTSSDVGGYNYVSWYQQHPGKAPKLMIYEVSKRPSGVPDRFSGSKSGNTASLTVSGLQAEDEADYYCSSYAGSNTLVFGGGTKLTVLGSRGGGGSGGGGSGGGGSLEMAQMQLVQSGAEVKKPGASVKVSCKASGYTFTSYYMHWVRQAPGQGLEWMGIINPSGGSSSYAQKFQGRVTMTRDTSTSTVYMELSSLRSEDTAVYYCARAGMGMDTWGQGTLVTVSS | binds
4 | ET150-166 scFv (scFv, also called ET150-16 scFv) scFv: NFMLTQPHSVSESPGKTVSISCTRTSGAIAGAYVQWFQQRPGSAPTTVIYDDNKRPSGVPDRFSGSIDKSSNSASLTISGLKTEDEADYYCQSYDYDSSNVLFGGGTKLTVLGSRGGGGSGGGGSGGGGSLEMAEVQLVESGGGLVQPGGSLRLSCAASGFTFSNYAMSWVRQAPGKGLEWVSAISGSGNTYYADSVKGRFTISRDNSKNTLYLQMNSLRAEDTAVYYCARGSVRYTDIWGQGTLVTVSS | binds
5 | ET150-160 scFv (scFv, also called ET150-10 scFv) scFv: QSALTQPASVSGSPGQSITISCTGTSSDVGGYNYVSWYQQHPGKAPKLMIYDVSKRPSGVSNRFSGSKSGNTASLTISGLQAEDEADYYCSSYTRSSTEVFGGGTKLTVLGSRGGGGSGGGGSGGGGSLEMAEVQLVQSGAEVKKPGASVKVSCKASGYTFTSYYMHWVRQAPGQGLEWMGIINPSGGSTSYAQKFQGRVTMTRDTSTSTVYMELSSLRSEDTAVYYCARGGSKKWSGEKWRRENFDYWGQGTLVTVSS | binds
6 | ET150-154 scFv (scFv, also called ET150-4 scFv) scFv: QAVLTQPPSASGTPGQRVTISCSGSSSNIGSNYVYWYQQLPGTAPKLLIYRNNQRPSGVPDRFSGSKSGTSASLAISGLRSEDEADYYCAAWDDSLSGYVFGTGTKVTVLGSRGGGGSGGGGSGGGGSLEMAQVQLVQSGAEVQRPGASVRVSCKAIAYTFTDYYIHWVRQAPGQGPEWMGWINPKSGRTQYAPKFQDRVTLARETPISTASMELRGLTSDDTAVYYCARVYGYSRWSGFDLWGQGTLVTVSS | binds
7 | ET150-161 scFv (scFv, also called ET150-11 scFv) scFv: SYVLTQPPSASGTPGQRVTISCSGSSSNIGSNTVNWYQQLPGTAPKLLIYRNNQRPSGVPDRFSGSKSGTSASLAISGLRSEDEADYYCAAWDDSLSGLFGTGTKVTVLGSRGGGGSGGGGSGGGGSLEMAQMQLVQSGAEVKKPGASVKVSCKASEYTFTRHILHWVRQAPGQSLEWMGWINPGNGNTKYSQKFQVRVTFTRDTSASTVYMELSSLRSEDTAVYYCARLPDQWGQGTLVTVSS | binds
8 | ET150-026 scFv (scFv, also called ET150-176 scFv) scFv: AELSYELTQPPSASGTPGQRVSISCSGSSSNIGSNTVNWYQQFPGTAPKLLIHSNNQRPSGVPDRFSGSKSGTSASLAISGPQSEDEADYYCAAWDDSVNGYVFGTGTKVTVLGSRGGGGSGGGGSGGGGSLEMAQLQLQESGGGSVQPGGSLRLSCAASGFTFSNYAMSWVRQAPGKGLEWVSAITNSGRSTYYADSVKGRFTISRDNSKNTLSLQMSSLRAEDTAVYYCARVTHRRYGSTFDSRGQGTLVTVSS | binds
9 | ET150-163 scFv (scFv, also called ET150-13 scFv) scFv: QSVVTQPPSVSGAPGQRVTISCTGSSSNIGAGYDVHWYQQLPGTAPKLLIYGNSNRPSGVPDRFSGSKSGTSASLAITGLQAEDEADYYCQSYDSSLSGSYVFGTGTKLTVLGSRGGGGSGGGGSGGGGSLEMAEVQLVETGGNLVQPGASLRLSCAASGFSFSGTAMHWVRQAPGKGLEWVSTISSTGRSTYYRDSVKGRFTISRDNSKNTLYLQMNSLRGEDTAVYYCARVSFDYWGQGTLVTVSS | binds
10 | ET150-165 scFv (scFv, also called ET150-15 scFv) scFv: QSALTQPPSASGSPGQSVTISCTGTSSDIGGYNYVSWYQQHPGKAPKLMIYEVNKRPSGVPDRFSGSKSGNTASLTVSGLQAEDEADYYCASFAGRKTLVFGGGTKLTVLGSRGGGGSGGGGSGGGGSLEMAQVQLVQSGAEVKKPGASVKVSCRASGYTFTAYSLHWVRQAPGQGLEWMGWINPSSGGAVYAQKFQGRVTMTRDTSISTAYMELSGLRSDDTAVYYCARNVGGQADDWGQGTLVTVSS | binds
11 | ET150-167 scFv (scFv, also called ET150-17 scFv) scFv: QSALTQPPSASGSPGQSVTISCTGTSTDIGGYNYVSWYQHHPSKAPKLMIYEVNKRPSGVPDRFSGSKSGNTASLTVSGLQAEDEADYYCASFAGRKTLVFGGGTKLTVLGSRGGGGSGGGGSGGGGSLEMAQVQLVQSGAEVKKPGASVKVSCRASGYTFTAYSLHWVRQAPGQGLEWMGWINPSSGGAVYAQKFQGRVTMTRDTSISTAYMELSGLRSDDTAVYYCARNVGGHADDWGQGTLVTVSS | binds
12 | ET150-031 scFv (scFv, also called ET150-181 scFv) scFv: AELQSVVTQPPSVSAAPGQRVTISCSGGSSNIGNNYVSWFQQLPRTAPKLLIYDNNKRPSGIPDRFSGSKSGTSAALDITVLQTGDEADYYCGTWDSSLRNWVFGGGTKLTVLGSRGGGGSGGGGSGGGGSLEMAQMQLVQSGAEVKKPGASVKVSCKASGYTFTSYYMHWVRQAPGQGLEWMGIINPSGGSTSYAQKFQGRVTMTRDTSTSTVYMELSSLRSEDTAVYYCARGQKYHSQYSRGGTGGGMTQDMWGQGTLVTVSS | binds

The next lines start with the values.

Row | binding result | Binder
13 | binds | ET150-153 scFv (scFv, also called ET150-3 scFv) scFv: QSVLTQPPSVSAAPGQKVTIPCSGSRSNVGNYYVSWYQQLPGTAPKLLIYDNNKRPSGIPDRFSGSKSGTSATLGITGLQTGDEADYFCGTWDGSLSAHVFGTGTKVTVLGSRGGGGSGGGGSGGGGSLEMAQVQLVQSGSELKKPGASVRVSCTASGYTFTSYYMHWVRQAPGQGLEWMGVINPNAGSTRYAQKFQGRVTMSTDTSTSTAYMDLSSLRSEDTAVYYCARGMYRSLLFYDPWGQGTLVTVSS
14 | binds | ET150-033 scFv (scFv, also called ET150-183 scFv) scFv: AELQAVLTQPPSASGTPGQRVTISCSGSSSNIGSNYVYWYQQLPGTAPKLLIYRNNQRPSGVPDRFSGSKSGTSASLAISGLRSEDEADYYCAAWDDSLSGRVFGTGTKVTVLGSRGGGGSGGGGSGGGGSLEMAQLQLVQSGAEVKKPGSSVKVSCKASGYTFNTYYLHWVRQAPGQGLEWMGRINPNNGGTNYAQKFQGRVTMTRDTSINTAYMELSRLRSDDTAVYYCARSYDYWGQGTLVTVSS
15 | binds | ET150-030 scFv (scFv, also called ET150-180 scFv) scFv: AELQSVLTQPPSVSGAPGQRVTISCTGSSSNIGAGYDVHWYQQLPGRAPKLLIYGNSNRPSGVPDRFSGSKSGTSASLAITGLQAEDEADYYCQSYDSSLRGYVFGTGTKVTVLGSRGGGGSGGGGSGGGGSLEMAQVQLVQSGGGVVQPGRSLRLSCAASGFSFSGTAMHWVRQAPGKGLEWVSTISSTGRSTYYRDSVKGRFTISRDNSKNTLYLQMNSLRGEDTAVYYCARPVSSMTLSIQSDGWGQGTLVTVSS
16 | binds | ET150-162 scFv (scFv, also called ET150-12 scFv) scFv: QSALTQPPSASGSPGQSVTISCTGTSRDAGGYNYFSWYQQHPGKAPKLLIYEVTKRPSGVPDRFSGSKSGKTASLTVSGLQADDEAVYYCSSYGGSNNFRVFGGGTKLTVLGSRGGGGSGGGGSGGGGSLEMAEVQLVESGGGVVRPGGSLRLSCAASGFTFGDYGMSWVRQAPGKGLEWVSGINWNGGSTGYADSVKGRFTISRDNAKNSLYLQMNSLRAEDTAVYYCARSKQDYWGQGTLVTVSS
17 | binds | ET150-028 scFv (scFv, also called ET150-178 scFv) scFv: AELQPVLTQPPSASGTPGQRVTISCSGSSSNIGGNTVSWYQQVPGTAPRLLIFRNNQRPPGVPDRFSGSKSGTSASLAISGLRSEDEADYYCAAWDASRQGVFGGGTKLTVLGSRGGGGSGGGGSGGGGSLEMAQVQLVQSGAEVKKPGSSVKVSCKASGGTFRSYAITWVRQAPGQGLEWMGRIIPMLDITNYAQKFQGRVTITADKSTSTAYMELSSLRSEDTAVYYCARTYSRSPFHMEDFWGQGTLVTVSS
18 | binds | ET150-169 scFv (scFv, also called ET150-19 scFv) scFv: QSVVTQPPSVSAAPGQKVTISCSGSSSNIGNNYVSWYQQLPGTAPKLLIYDNNKRPSGIPDRFSGSKSGTSATLGITGLQTGDEADYYCGTWDSSLSGVVFGGGTKLTVLGSRGGGGSGGGGSGGGGSLEMAQVQLVQSGGEVKKPGASVKVSCKASGFTFNTYGISWVRQAPGQGLEWMGWISANNGHTKSAQRFQDRVAMATDTSTSTAYMELRSLKFDDTAVYYCARGGYHHQMQRYYKATSVYSDYWGQGTLVTVSS
19 | binds | ET150-032 scFv (scFv, also called ET150-182 scFv) scFv: AELQSVLTQPPSASGSPGQSLTISCTGTSSDVGGYNHVSWYQQYPGKAPKLMIYEVTKRPSGVPDRFSGSKSGNTASLTVSGLQAEDEADYYCSSYAGSAHWVFGGGTKLTVLGSRGGGGSGGGGSGGGGSLEMAEVQLVQSGAEVKKPGASVKVSCKASGYTFSRYYIHWVRQAPGQGLEWMGWMNPNSGNTGYAQKFQGRVTMTRNTSISTAYMELSSLRSEDTAVYYCARGRYHVIDYWGQGTLVTVSS
20 | binds | ET150-173 scFv (scFv, also called ET150-23 scFv) scFv: QSALTQPASVSGSPGQSITISCTGTSSDVGGYNYVSWYQQSPGKAPRLMIYGVSKRPSGVPDRFSGSKSGNTASLTVSGLQAEDEADYYCSSYAGVNNLMFGGGTKLTVLGSRGGGGSGGGGSGGGGSLEMAQVQLVQSGAEVKKPGASVKVSCKASGYTFTSYYMHWVRQAPGQGLEWMGIINPSGGSTSYAQKFQGRVTMTRDTSTSTVYMELSSLRSEDTAVYYCARDVISGFDSWGQGTLVTVSS
